Data reported in paper PMC7239452.

Molecular target: ERp29 (ER protein of 29 kDa; mouse, Min-6 insulinoma cells) (mouse (endogenous in Min-6)) (UniProt P57759)
Experiment: co-IP; Min-6 lysate, non-denaturing; 50 ug lysate protein, 2 ul primary antibody 1 h, Protein G agarose 2 h at room temperature; precipitated Proinsulin quantified by Mercodia rat/mouse Proinsulin ELISA; controls: no antibody, anti-V5

Work on “Proinsulin (mouse, Min-6 insulinoma cells) (natural protein)” yielded a fold precipitation of Proinsulin over the anti-V5 control greater than 10 fold.
